In paper PMC2174279 (The Journal of Cell Biology, 2000):

T1: peptide PBS2 (NKPLPPLPVA), LexA bait (S. cerevisiae)
T1 peptide: NKPLPPLPVA

T2: peptide PRP1 (QPDHPPPSPP), LexA bait
T2 peptide: QPDHPPPSPP

T3: peptide PRP2 (PPPYQAPHPP), LexA bait
T3 peptide: PPPYQAPHPP


Legend:
Experiment in all cases: two-hybrid
[1] = target: T1, peptide PBS2 (NKPLPPLPVA), LexA bait
[2] = target: T2, peptide PRP1 (QPDHPPPSPP), LexA bait
[3] = target: T3, peptide PRP2 (PPPYQAPHPP), LexA bait

| Binder | LacZ expression (two-hybrid) [1] | LacZ expression (two-hybrid) [2] | LacZ expression (two-hybrid) [3] |
| --- | --- | --- | --- |
| SH3 domain of Sho1p (176-367) (domain or fragment) not shown | 190 Miller units | – | – |
| Myo5p-SH3-AD (1020-1219) (domain or fragment) NKAATRRSVPNPASTLTASQSNARPSPPTAATRATPAATPAAAAMGSGRQANIPPPPPPPPPSSKPKEPMFEAAYDFPGSGSPSELPLKKGDVIYITREEPSGWSLGKLLDGSKEGWVPTAYMKPHSGNNNIPTPPQNRDVPKPVLNSVQHDNTSANVIPAAAQASLGDGLANALAARANKMRLESDDEEANEDEEEDDW | – | 406 Miller units | 255 Miller units |
